This data set deals with the molecule itself. As to the kind of experiment: velocity sedimentation on H2O- and D2O-sucrose gradients + SEC.

B1: seipin-myc13 (yeast seipin fused to 13 tandem copies of the myc epitope) (natural protein, S. cerevisiae, UniProt Q06058 1-285, looked up)
chain: MKINVSRPLQFLQWSSYIVVAFLIQLLIILPLSILIYHDFYLRLLPADSSNVVPLNTFNILNGVQFGTKFFQSIKSIPVGTDLPQTIDNGLSQLIPMRDNMEYKLDLNLQLYCQSKTDHLNLDNLLIDVYRGPGPLLGAPGGSNSKDEKIFHTSRPIVCLALTDSMSPQEIEQLGPSRLDVYDEEWLNTIRIEDKISLESSYETISVFLKTEIAQRNLIIHPESGIKFRMNFEQGLRNLMLRKRFLSYIIGISIFHCIICVLFFITGCTAFIFVRKGQEKSKKHS
For the protein B1, the “stoichiometry N” value was found to be 9.4 subunits/complex.

B2: seipin-mCherry (yeast seipin tagged at its carboxy terminus with mCherry) (natural protein, S. cerevisiae, UniProt Q06058 1-285, looked up)
chain: B1 chain
With B2, the “stoichiometry N” value worked out at 8.7 subunits/complex.

These data come from paper PMC3086013 (Biochemistry, 2010).
